The record followed here is patent US20250382602.

Conditions in all cases: nanopore translocation; background mutations not given
The target in data set [1] is T1, Dda 1993 C114A C114A (Enterobacteria phage T4) (UniProt P32270).
T1 sequence: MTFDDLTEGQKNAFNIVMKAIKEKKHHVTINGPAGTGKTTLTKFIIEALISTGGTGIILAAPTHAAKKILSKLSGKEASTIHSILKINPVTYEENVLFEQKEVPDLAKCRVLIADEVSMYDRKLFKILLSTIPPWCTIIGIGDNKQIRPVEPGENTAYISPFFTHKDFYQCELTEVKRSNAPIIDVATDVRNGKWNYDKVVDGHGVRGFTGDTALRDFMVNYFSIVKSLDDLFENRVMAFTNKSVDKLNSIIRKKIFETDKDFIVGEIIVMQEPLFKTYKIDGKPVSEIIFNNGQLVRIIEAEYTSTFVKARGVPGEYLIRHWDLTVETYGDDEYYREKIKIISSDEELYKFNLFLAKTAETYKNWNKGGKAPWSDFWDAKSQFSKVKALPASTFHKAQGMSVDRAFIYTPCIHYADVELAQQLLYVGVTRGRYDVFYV

The target in data set [2] is T2, Dda 1993 C114G C114G (Enterobacteria phage T4) (UniProt P32270).
T2 sequence: T1 sequence with A114G

Data set [3] has as its target T3, Dda 1993 C114I C114I (Enterobacteria phage T4) (UniProt P32270).
T3 sequence: T1 sequence with A114I

For data set [4], the target named is T4, Dda 1993 C114L C114L (Enterobacteria phage T4) (UniProt P32270).
T4 sequence: T1 sequence with A114L

Data set [5] concerns the target T5, Dda 1993 C114S C114S (Enterobacteria phage T4) (UniProt P32270).
T5 sequence: T1 sequence with A114S

For data set [6], the target named is T6, Dda 1993 C114V C114V (Enterobacteria phage T4) (UniProt P32270).
T6 sequence: T1 sequence with A114V

Positions count from the first letter of the chain named.

Regarding “barcoded 3.6 kb DNA analyte ligated to sequencing Y adaptor”, the activity (bps speed delta vs control) was 13.8 in data set [1]; -11.3 in data set [2]; 93.7 in data set [3]; -42 in data set [4]; -7.28 in data set [5]; 26 in data set [6].
